Measured values published in US20210069338A1.

Biological target: human NPY2 receptor (HEK293/hNPY2R cells) (human) (UniProt P49146)
Experiment: cell-based or functional assay

human NPY2 receptor (HEK293/hNPY2R cells) (human), sequence (P49146 whole entry): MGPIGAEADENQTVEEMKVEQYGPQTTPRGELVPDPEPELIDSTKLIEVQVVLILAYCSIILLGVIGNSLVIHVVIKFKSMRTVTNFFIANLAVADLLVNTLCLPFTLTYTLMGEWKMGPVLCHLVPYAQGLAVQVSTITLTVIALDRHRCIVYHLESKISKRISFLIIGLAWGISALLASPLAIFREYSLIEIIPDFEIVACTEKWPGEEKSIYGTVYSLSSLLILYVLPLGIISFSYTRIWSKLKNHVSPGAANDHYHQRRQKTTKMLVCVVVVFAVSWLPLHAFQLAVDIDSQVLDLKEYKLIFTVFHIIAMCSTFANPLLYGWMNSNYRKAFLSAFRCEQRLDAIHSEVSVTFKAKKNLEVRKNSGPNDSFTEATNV
PYY(3-36) wild-type (peptide; modification not given), sequence (chain, as listed by the source): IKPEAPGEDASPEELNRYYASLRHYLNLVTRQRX

For “PYY(3-36) wild-type (peptide; modification not given)”, the EC50 [nM], cAMP assay (inhibition of Forskolin stimulated cAMP accumulation in HEK293/hNPY2R cells), day 1 was 0.09 nM and the EC50 [nM], cAMP assay (inhibition of Forskolin stimulated cAMP accumulation in HEK293/hNPY2R cells), day 2 was 0.1 nM.
